Measurements from paper PMC3325213 (PLoS Pathogens, 2012).

Molecular target: the molecule itself
Test: SEC; analytical gel filtration, Superdex-200 10/300GL, 50 mM Tris pH 7, 500 mM NaCl, 5% glycerol; mass against protein standards

B1: Tsi2–H6 (C-terminal hexahistidine-tagged Tsi2) (natural protein)
chain: MNLKPQTLMVAIQCVAARTRELDAQLQNDDPQNAAELEQLLVGYDLAADDLKNAYEQALGQYSGLPPYDRLIEEPAS
notes: source: E. coli BL21 pLysS, purified (HisTrap FF, Sephacryl S-200 size exclusion); not shown: His6, C-terminal, kept
  stoichiometry N: 2
